Assay results from patent US20260242823.
Where two headings read alike, the source gives them in different places.

B1: plasmin (protein)
chain: KVYLSECKTGNGKNYRGTMSKTKNGITCQKWSSTSPHRPRFSPATHPSEGLEENYCRNPDNDPQGPWCYTTDPEKRYDYCDILECEEECMHCSGENYDGKISKTMSGLECQAWDSQSPHAHGYIPSKFPNKNLKKNYCRNPDRELRPWCFTTDPNKRWELCDIPRCTTPPPSSGPTYQCLKGTGENYRGNVAVTVSGHTCQHWSAQTPHTHNRTPENFPCKNLDENYCRNPDGKRAPWCHTTNSQVRWEYCKIPSCDSSPVSTEQLAPTAPPELTPVVQDCYHGDGQSYRGTSSTTTTGKKCQSWSSMTPHRHQKTPENYPNAGLTMNYCRNPDADKGPWCFTTDPSVRWEYCNLKKCSGTEASVVAPPPVVLLPDVETPSEEDCMFGNGKGYRGKRATTVTGTPCQDWAAQEPHRHSIFTPETNPRAGLEKNYCRNPDGDVGGPWCYTTNPRKLYDYCDVPQCAAPSFDCGKPQVEPKKCPGRVVGGCVAHPHSWPWQVSLRTRFGMHFCGGTLISPEWVLTAAHCLEKSPRPSSYKVILGAHQEVNLEPHVQEIEVSRLFLEPTRKDIALLKLSSPAVITDKVIPACLPSPNYVVADRTECFITGWGETQGTFGAGLLKEAQLPVIENKVCNRYEFLNGRVQSTELCAGHLAGGTDSCQGDSGGPLVCFEKDKYILQGVTSWGLGCARPNKPGVYVRVSRFVTWIEGVMRNN

Tests used:
wild-type FVIII [1] = system: wild-type FVIII
FVIII-R336Q/R562Q [2] = system: FVIII-R336Q/R562Q
wild-type FVIII [3] = target: wild-type FVIII; remark: listed apart in the source
FVIII-R336Q/R562Q [4] = target: FVIII-R336Q/R562Q; remark: listed apart in the source

FVIII-R336Q/R562Q, sequence (chain, as listed by the source R336Q R562Q): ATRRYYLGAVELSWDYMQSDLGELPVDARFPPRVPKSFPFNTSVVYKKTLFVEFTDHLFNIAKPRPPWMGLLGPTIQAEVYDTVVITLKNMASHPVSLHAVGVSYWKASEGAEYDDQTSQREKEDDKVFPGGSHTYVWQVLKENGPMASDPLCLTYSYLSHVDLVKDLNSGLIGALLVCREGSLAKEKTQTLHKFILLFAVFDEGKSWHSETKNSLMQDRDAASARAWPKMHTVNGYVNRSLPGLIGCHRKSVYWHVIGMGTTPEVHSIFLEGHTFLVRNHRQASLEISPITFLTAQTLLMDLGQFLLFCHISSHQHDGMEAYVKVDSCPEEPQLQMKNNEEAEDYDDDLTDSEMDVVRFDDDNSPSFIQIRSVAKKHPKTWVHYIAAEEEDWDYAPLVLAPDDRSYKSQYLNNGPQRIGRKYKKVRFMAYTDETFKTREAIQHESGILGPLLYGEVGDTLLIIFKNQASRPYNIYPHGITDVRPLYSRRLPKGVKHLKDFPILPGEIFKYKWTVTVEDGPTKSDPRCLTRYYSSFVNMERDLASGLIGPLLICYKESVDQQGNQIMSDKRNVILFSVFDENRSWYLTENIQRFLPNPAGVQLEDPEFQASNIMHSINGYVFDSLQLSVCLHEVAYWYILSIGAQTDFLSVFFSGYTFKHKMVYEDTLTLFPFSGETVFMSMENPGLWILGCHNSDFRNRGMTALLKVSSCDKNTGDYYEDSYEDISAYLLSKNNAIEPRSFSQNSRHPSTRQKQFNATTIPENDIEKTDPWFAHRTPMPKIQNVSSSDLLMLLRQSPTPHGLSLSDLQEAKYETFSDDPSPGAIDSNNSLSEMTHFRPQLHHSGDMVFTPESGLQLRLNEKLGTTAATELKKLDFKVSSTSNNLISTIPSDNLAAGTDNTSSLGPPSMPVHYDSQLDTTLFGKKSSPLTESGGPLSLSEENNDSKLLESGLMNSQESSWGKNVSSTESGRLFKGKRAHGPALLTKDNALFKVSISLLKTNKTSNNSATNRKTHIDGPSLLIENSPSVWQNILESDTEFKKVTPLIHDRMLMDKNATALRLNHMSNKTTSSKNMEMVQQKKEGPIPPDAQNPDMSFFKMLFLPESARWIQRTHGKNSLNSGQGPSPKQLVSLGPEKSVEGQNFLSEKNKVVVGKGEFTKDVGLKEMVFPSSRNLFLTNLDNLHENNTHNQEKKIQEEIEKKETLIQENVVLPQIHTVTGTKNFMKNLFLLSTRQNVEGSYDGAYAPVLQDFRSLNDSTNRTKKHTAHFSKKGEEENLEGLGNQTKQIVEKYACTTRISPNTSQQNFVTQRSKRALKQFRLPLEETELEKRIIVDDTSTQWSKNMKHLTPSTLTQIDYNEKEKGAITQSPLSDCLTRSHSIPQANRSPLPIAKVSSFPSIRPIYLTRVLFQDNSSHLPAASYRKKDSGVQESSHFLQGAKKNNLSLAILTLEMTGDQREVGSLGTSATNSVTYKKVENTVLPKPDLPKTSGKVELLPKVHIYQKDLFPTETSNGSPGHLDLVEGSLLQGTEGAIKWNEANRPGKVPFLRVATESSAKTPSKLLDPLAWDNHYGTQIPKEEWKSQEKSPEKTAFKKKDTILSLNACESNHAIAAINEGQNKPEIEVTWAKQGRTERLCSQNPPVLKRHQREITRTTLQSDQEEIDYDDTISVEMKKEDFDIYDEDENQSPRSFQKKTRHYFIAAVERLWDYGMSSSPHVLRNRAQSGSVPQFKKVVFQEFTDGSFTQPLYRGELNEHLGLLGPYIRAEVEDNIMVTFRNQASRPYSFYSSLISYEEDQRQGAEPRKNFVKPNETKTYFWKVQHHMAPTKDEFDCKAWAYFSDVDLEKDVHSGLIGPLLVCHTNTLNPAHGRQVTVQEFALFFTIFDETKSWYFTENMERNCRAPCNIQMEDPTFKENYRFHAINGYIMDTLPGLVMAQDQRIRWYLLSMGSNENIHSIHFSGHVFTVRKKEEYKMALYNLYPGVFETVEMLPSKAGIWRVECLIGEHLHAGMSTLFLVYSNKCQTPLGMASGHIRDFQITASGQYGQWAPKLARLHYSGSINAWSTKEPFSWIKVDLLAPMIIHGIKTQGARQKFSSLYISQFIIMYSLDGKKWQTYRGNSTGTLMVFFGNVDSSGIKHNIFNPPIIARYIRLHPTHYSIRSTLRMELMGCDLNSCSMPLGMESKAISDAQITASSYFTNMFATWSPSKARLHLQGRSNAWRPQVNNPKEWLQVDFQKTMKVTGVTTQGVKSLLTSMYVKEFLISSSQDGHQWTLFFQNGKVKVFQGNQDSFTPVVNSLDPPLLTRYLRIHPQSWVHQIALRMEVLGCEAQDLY
wild-type FVIII, sequence (chain, as listed by the source): as the sequence (chain, as listed by the source R336Q R562Q) above, with Q336R, Q562R counted along it

Row | Molecule | Western Blot analysis of cleavage fragments (wild-type FVIII [1]) | Western Blot analysis of cleavage fragments (FVIII-R336Q/R562Q [2]) | Western blot cleavage at R372 (wild-type FVIII [1]) | Western Blot analysis of cleavage fragments (wild-type FVIII [3]) | Western Blot analysis of cleavage fragments (FVIII-R336Q/R562Q [4])
1 | FIXa | all serine proteases cleaved at R336 or R562 in FVIII-WT | no such cleavage fragments were seen with FVIII-QQ |  |  | 
2 | FXa | all serine proteases cleaved at R336 or R562 in FVIII-WT | no such cleavage fragments were seen with FVIII-QQ |  |  | 
3 | activated protein C | all serine proteases cleaved at R336 or R562 in FVIII-WT | no such cleavage fragments were seen with FVIII-QQ |  |  | 
4 | thrombin (IIa) | all serine proteases cleaved at R336 or R562 in FVIII-WT | no such cleavage fragments were seen with FVIII-QQ | thrombin (IIa) as well as multiple serine proteases can also cleave R372 of FVIII |  | 
5 | B1 |  |  |  | all serine proteases cleaved at R336 or R562 in FVIII-WT | no such cleavage fragments were seen with FVIII-QQ
